Laboratory results as given in patent US20220289833A1 (BIOSION, published 2022).
Read-outs that look alike come from different tables or passages of the source.

Columns and labels:
[1] = biological target: T1, human TSLP-Fc (human, biotin-labeled); test: competitive ELISA: antibody pre-mixed with biotin-labeled human TSLP-Fc; blocked binding to coated Tezepelumab
T1 construct: Prepared in-house; also called biotin-labeled human TSLP-Fc; TSLP-Fc-biotin

[2] = biological target: T1, human TSLP-Fc; test: competitive ELISA: antibody pre-mixed with biotin-labeled human TSLP-Fc; blocked binding to coated human TSLPR-Fc/IL7Ra-Fc
[3] = biological target: T2, Recombinant cynomolgus monkey TSLP-his (cynomolgus monkey); test: indirect ELISA on coated cynomolgus TSLP-his
T2 construct: Prepared in-house; Amine-coupled to CM5 chip in SPR, coated on plates in the indirect ELISA; also called cynomolgus TSLP; cynomolgus TSLP-his protein
T2 chain: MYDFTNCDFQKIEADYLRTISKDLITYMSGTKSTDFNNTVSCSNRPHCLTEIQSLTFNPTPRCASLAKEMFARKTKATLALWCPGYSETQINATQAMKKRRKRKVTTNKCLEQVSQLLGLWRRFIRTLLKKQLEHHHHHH

[4] = biological target: T1, human TSLP-Fc; test: competitive ELISA: antibody pre-mixed with biotin-labeled human TSLP-Fc; blocked binding to coated Tezepelumab; remark: listed apart in the source
[5] = biological target: T1, human TSLP-Fc; test: as above; remark: listed apart in the source
[6] = biological target: T1, human TSLP-Fc; test: cell-based ligand-blocking FACS: antibody pre-mixed with human TSLP-Fc; blocked binding to BAF3-3E6 cells expressing human TSLPR and IL7R
[7] = biological target: T2, Recombinant cynomolgus monkey TSLP-his; test: SPR, BIAcore; protocol of Example 2
[8] = biological target: T2, Recombinant cynomolgus monkey TSLP-his; test: indirect ELISA on coated cynomolgus TSLP-his
[9] = biological target: T1, human TSLP-Fc; test: competitive ELISA: antibody pre-mixed with biotin-labeled human TSLP-Fc; blocked binding to coated human TSLPR-Fc/IL7Ra-Fc; remark: listed apart in the source
[10] = biological target: T1, human TSLP-Fc; test: cell-based ligand-blocking FACS: antibody pre-mixed with human TSLP-Fc; blocked binding to BAF3-3E6 cells expressing human TSLPR and IL7R; remark: listed apart in the source
[11] = biological target: T1, human TSLP-Fc; test: as above; remark: listed apart in the source
[12] = biological target: T1, human TSLP-Fc; test: competitive ELISA: antibody pre-mixed with biotin-labeled human TSLP-Fc; blocked binding to coated Tezepelumab; remark: listed apart in the source
[13] = biological target: T2, Recombinant cynomolgus monkey TSLP-his; test: SPR, Biacore T200; cynomolgus TSLP-his amine-coupled to CM5 chip, antibody as analyte; 1:1 Langmuir fit
[14] = biological target: T1, human TSLP-Fc; test: competitive ELISA: antibody pre-mixed with biotin-labeled human TSLP-Fc; blocked binding to coated human TSLPR-Fc/IL7Ra-Fc; remark: listed apart in the source
[15] = biological target: T1, human TSLP-Fc; test: cell-based ligand-blocking FACS: antibody pre-mixed with human TSLP-Fc; blocked binding to BAF3-3E6 cells expressing human TSLPR and IL7R; remark: listed apart in the source
[16] = biological target: T1, human TSLP-Fc; test: competitive ELISA: antibody pre-mixed with biotin-labeled human TSLP-Fc; blocked binding to coated human TSLPR-Fc/IL7Ra-Fc; remark: listed apart in the source

B1: Tezepelumab (antibody, human IgG2, lambda, V domains shown)
VH: QMQLVESGGGVVQPGRSLRLSCAASGFTFRTYGMHWVRQAPGKGLEWVAVIWYDGSNKHYADSVKGRFTITRDNSKNTLNLQMNSLRAEDTAVYYCARAPQWELVHEAFDIWGQGTMVTVSS
VL: SYVLTQPPSVSVAPGQTARITCGGNNLGSKSVHWYQQKPGQAPVLVVYDDSDRPSWIPERFSGSNSGNTATLTISRGEAGDEADYYCQVWDSSSDHVVFGGGTKLTVLG
notes: also called TSLP-BM; benchmark
Binder B1 has an IC50 [1] of 0.18 nM, an IC50 [2] of 0.99 nM and an EC50 [3] of 0.105 nM. It also gave an IC50 [4] of 0.486 nM, an IC50 [5] of 5.79 nM and an IC50 [6] of 0.759 nM. For the same binder, the Kd [7] was 0.0672 nM, the EC50 [8] was 0.127 nM and the IC50 [9] was 6.27 nM. The IC50 [10] was 1.45 nM, the IC50 [11] was 1.48 nM and the IC50 [12] was 0.495 nM. It also gave a Kd [13] of 0.0733 nM, an IC50 [14] of 0.0777 nM and an IC50 [15] of 0.728 nM. It also gave an IC50 [16] of 0.506 nM.
